Measurements taken from PMC2064704.

What was measured:
[1] = molecular target: endogenous actin filaments of XTC cells (Xenopus laevis (endogenous in XTC)) (UniProt O93400); assay: single-molecule speckle microscopy
[2] = molecular target: endogenous actin filaments of XTC cells (Xenopus laevis (endogenous in XTC)) (UniProt O93400); assay: decay of EGFP fluorescence in permeabilized cells

half-life of speckles in lamellipodia [1]	decay rate of fluorescence in lamellipodia of permeabilized cells [2]	half-life of persistent speckles after 1 μM Jas [1]	half-life of persistent speckles before Jas [1]	half-life of persistent speckles in lamella away from stress fibers [1]	half-life of persistent speckles on stress fibers [1]	Substance
1.23 s						CPβ1-EGFP expressed in XTC cells (coupled with endogenous CPα subunits) (complex)
1.2 s	0.00017 s⁻¹	68.9 s	4.26 s	0.95 s	2.9 s	EGFP-CPβ1 expressed in XTC cells (coupled with endogenous CPα subunits) (complex)
